Target: Dog MCH receptor (dog)
Test: cell-based or functional assay

Dog MCH receptor (dog), sequence (Q5IJ49 other isoform, or with tags, fused parts or gaps): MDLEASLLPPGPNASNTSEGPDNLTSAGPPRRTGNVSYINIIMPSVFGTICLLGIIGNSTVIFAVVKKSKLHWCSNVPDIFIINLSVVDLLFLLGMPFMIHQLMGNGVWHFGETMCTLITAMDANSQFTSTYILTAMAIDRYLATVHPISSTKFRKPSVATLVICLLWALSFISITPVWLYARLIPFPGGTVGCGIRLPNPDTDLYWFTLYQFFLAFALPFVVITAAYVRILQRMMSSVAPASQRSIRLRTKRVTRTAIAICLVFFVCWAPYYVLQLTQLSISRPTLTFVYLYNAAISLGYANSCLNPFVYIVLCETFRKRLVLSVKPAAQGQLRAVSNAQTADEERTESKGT

Melanin-concentrating hormone (MCH) (from UniProt P20382 147-165) (peptide)
EC50 for activation of the dog MCH receptor (aequorin bioluminescence, fractional response, in transfected 293-AEQ17 cells): 30 nM

Source: patent publication US20030212252A1
